Measurements from article PMC10319725, “A mechanical-coupling mechanism in OSCA/TMEM63 channel mechanosensitivity” (Nature Communications, 2023).

Legend:
[1] = molecular target: the molecule itself; assay: cryo-EM structure; purified AtOSCA3.1 in a detergent environment; two conformations (contracted, extended) in one data set
[2] = molecular target: the molecule itself; assay: SEC; fluorescence-detection SEC (FSEC) of detergent-solubilised Expi293F cells (1% LMNG, 0.1% CHS; also DDM or GDN), Superose 6 increase 5/150 in TBS (20 mM Tris pH 8.0, 150 mM NaCl) with 10 uM LMNG, GFP fluorescence detected
[3] = molecular target: the molecule itself; assay: cryo-EM structure; purified AtOSCA1.1 reconstituted in MSPE3D1 lecithin nanodiscs, TBS

B1: AtOSCA3.1 (natural protein, Arabidopsis thaliana)
chain: MEFGSFLVSLGTSFVIFVILMLLFTWLSRKSGNAPIYYPNRILKGLEPWEGTSLTRNPFAWMREALTSSEQDVVNLSGVDTAVHFVFLSTVLGIFACSSLLLLPTLLPLAATDNNIKNTKNATDTTSKGTFSQLDNLSMANITKKSSRLWAFLGAVYWISLVTYFFLWKAYKHVSSLRAQALMSADVKPEQFAILVRDMPAPPDGQTQKEFIDSYFREIYPETFYRSLVATENSKVNKIWEKLEGYKKKLARAEAILAATNNRPTNKTGFCGLVGKQVDSIEYYTELINESVAKLETEQKAVLAEKQQTAAVVFFTTRVAAASAAQSLHCQMVDKWTVTEAPEPRQLLWQNLNIKLFSRIIRQYFIYFFVAVTILFYMIPIAFVSAITTLKNLQRIIPFIKPVVEITAIRTVLESFLPQIALIVFLAMLPKLLLFLSKAEGIPSQSHAIRAASGKYFYFSVFNVFIGVTLAGTLFNTVKDIAKNPKLDMIINLLATSLPKSATFFLTYVALKFFIGYGLELSRIIPLIIFHLKKKYLCKTEAEVKEAWYPGDLSYATRVPGDMLILTITFCYSVIAPLILIFGITYFGLGWLVLRNQALKVYVPSYESYGRMWPHIHQRILAALFLFQVVMFGYLGAKTFFYTALVIPLIITSLIFGYVCRQKFYGGFEHTALEVACRELKQSPDLEEIFRAYIPHSLSSHKPEEHEFKGAMSRYQDFNAIAGV
notes: AtOSCA3.1 from Arabidopsis thaliana, UniprotKB Q9C8G5; also called contracted state of AtOSCA3.1; extended state of AtOSCA3.1; source: Expi293F infected by baculovirus, purified (DDM, TALON)
stoichiometry N [1]: 2

B2: AtOSCA1.1-CGFP (natural protein, Arabidopsis thaliana)
chain: MATLKDIGVSAGINILTAFIFFIIFAFLRLQPFNDRVYFSKWYLRGLRSSPASGGGFAGRFVNLELRSYLKFLHWMPEALKMPERELIDHAGLDSVVYLRIYWLGLKIFAPIAMLAWAVLVPVNWTNNELELAKHFKNVTSSDIDKLTISNIPEGSNRFWAHIIMAYAFTIWTCYMLMKEYETVANMRLQFLASEGRRPDQFTVLVRNVPPDPDETVSELVEHFFLVNHPDNYLTHQVVCNANKLADLVSKKTKLQNWLDYYQLKYTRNNSQIRPITKLGCLGLCGQKVDAIEHYIAEVDKTSKEIAEERENVVNDQKSVMPASFVSFKTRWAAAVCAQTTQTRNPTEWLTEWAAEPRDIYWPNLAIPYVSLTVRRLVMNVAFFFLTFFFIIPIAFVQSLATIEGIEKVAPFLKVIIEKDFIKSLIQGLLAGIALKLFLIFLPAILMTMSKFEGFTSVSFLERRSASRYYIFNLVNVFLGSVIAGAAFEQLNSFLNQSPNQIPKTIGMAIPMKATFFITYIMVDGWAGVAGEILMLKPLIIYHLKNAFLVKTEKDREEAMNPGSIGFNTGEPQIQLYFLLGLVYAPVTPMLLPFILVFFALAYVVYRHQIINVYNQEYESAAAFWPDVHGRVITALIISQLLLMGLLGTKHAASAAPFLIALPVITIGFHRFCKGRFEPAFVRYPLQEAMMKDTLERAREPNLNLKGYLQDAYIHPVFKGGDNDDDGDMIGKLENEVIIVPTKRQSRRNTPAPSRISGESSPSLAVINGKEV
notes: AtOSCA1.1 from Arabidopsis thaliana, UniprotKB Q9XEA1; cDNA cloned into a C-terminally GFP-tagged BacMam vector; His8 and FLAG lie after GFP in the vector; also called Arabidopsis thaliana OSCA1.1; source: Expi293F, transfected, solubilised in LMNG-CHS, in cleared lysate; not shown: GFP, C-terminal, kept
stoichiometry N [2]: 2

B3: AtOSCA1.1 in lipid nanodisc (natural protein, Arabidopsis thaliana)
chain: MATLKDIGVSAGINILTAFIFFIIFAFLRLQPFNDRVYFSKWYLRGLRSSPASGGGFAGRFVNLELRSYLKFLHWMPEALKMPERELIDHAGLDSVVYLRIYWLGLKIFAPIAMLAWAVLVPVNWTNNELELAKHFKNVTSSDIDKLTISNIPEGSNRFWAHIIMAYAFTIWTCYMLMKEYETVANMRLQFLASEGRRPDQFTVLVRNVPPDPDETVSELVEHFFLVNHPDNYLTHQVVCNANKLADLVSKKTKLQNWLDYYQLKYTRNNSQIRPITKLGCLGLCGQKVDAIEHYIAEVDKTSKEIAEERENVVNDQKSVMPASFVSFKTRWAAAVCAQTTQTRNPTEWLTEWAAEPRDIYWPNLAIPYVSLTVRRLVMNVAFFFLTFFFIIPIAFVQSLATIEGIEKVAPFLKVIIEKDFIKSLIQGLLAGIALKLFLIFLPAILMTMSKFEGFTSVSFLERRSASRYYIFNLVNVFLGSVIAGAAFEQLNSFLNQSPNQIPKTIGMAIPMKATFFITYIMVDGWAGVAGEILMLKPLIIYHLKNAFLVKTEKDREEAMNPGSIGFNTGEPQIQLYFLLGLVYAPVTPMLLPFILVFFALAYVVYRHQIINVYNQEYESAAAFWPDVHGRVITALIISQLLLMGLLGTKHAASAAPFLIALPVITIGFHRFCKGRFEPAFVRYPLQEAMMKDTLERAREPNLNLKGYLQDAYIHPVFKGGDNDDDGDMIGKLENEVIIVPTKRQSRRNTPAPSRISGESSPSLAVINGKEV
notes: AtOSCA1.1 from Arabidopsis thaliana, UniprotKB Q9XEA1; GFP removed by HRV3C protease; His8 and FLAG lie after GFP in the vector and were probably removed with it; Embedded in MSPE3D1 lecithin nanodiscs; also called extended state of AtOSCA1.1; not shown: GFP, C-terminal, cleaved
stoichiometry N [3]: 2
